Measurements published in patent US20040002128.

T1: sensor A, polyhistidine-tagged recombinant FRET probe (bacterial version) (not fully specified)
T1 chain: SGLRSGGDEVDGGSNS

T2: CFP-YFP fusion protein, polyhistidine-tagged (bacterial version, no caspase substrate sequence)
T2 chain: SGLRSRAQASNS

T3: AC-DEVD-CHO
T3 chain: DEVD

T4: sensor B, polyhistidine-tagged recombinant FRET probe (bacterial version) (not fully specified)
T4 chain: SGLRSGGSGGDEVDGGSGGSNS


Legend:
[1] = molecular target: sensor C8, polyhistidine-tagged
[2] = molecular target: sensor C8A, polyhistidine-tagged
[3] = molecular target: T1, sensor A, polyhistidine-tagged …
[4] = molecular target: T2, CFP-YFP fusion protein, …
AC-DEVD-CHO = molecular target: T3, AC-DEVD-CHO
[5] = molecular target: T4, sensor B, polyhistidine-tagged …

Row | Protein | caspase-8 concentration that reduces the FRET effect by 50% (sensor 22.45 nM, one hour) [1] | caspase-8 needed for 50% FRET reduction, against sensor C8A [1] | cleavage, Western blot [1] | fraction of the sensor cleaved, band intensity on Western blot, caspase-8 216 nM, one hour [1] | caspase-8 concentration that reduces the FRET effect by 50% (sensor 22.45 nM, one hour) [2] | cleavage, Western blot [2] | fraction of the sensor cleaved, band intensity on Western blot, caspase-8 216 nM, one hour [2] | cleavage, Western blot [3] | decrease of the emission ratio of YFP/CFP [3] | dosage-dependent caspase-3 cleavage assay, normalized emission ratio (YFP/CFP) [3] | emission ratio of YFP/CFP before and after caspase-3 [3] | cleavage, Western blot [4] | emission spectrum after caspase-3 [4] | cleavage of sensor A by caspase-3, Western blot (AC-DEVD-CHO) | cleavage, Western blot [5] | decrease of the emission ratio of YFP/CFP [5] | dosage-dependent caspase-3 cleavage assay, normalized emission ratio (YFP/CFP) [5] | emission ratio of YFP/CFP before and after caspase-3 [5]
1 | caspase-8 (protein) SESQTLDKVYQMKSKPRGYCLIINNHNFAKAREKVPKLHSIRDRNGTHLDAGALTTTFEELHFEIKPHDDCTVEQIYEILKIYQLMDHSNMDCFICCILSHGDKGIIYGTDGQEAPIYELTSQFTGLKCPSLAGKPKVFFIQACQGDNYQKGIPVETDSEEQPYLEMDLSSPQTRYIPDEADFLLGMATVNNCVSYRNPAEGTWYIQSLCQSLRERCPRGDDILTILTEVNYEVSNKDDKKNMGKQMPQPTFTLRKKLVFPSD | about 5-fold more caspase-8 (3.4 nM) was required to produce the same FRET reduction for sensor C8 | about 5-fold more caspase-8 (3.4 nM) was required to produce the same FRET reduction for sensor C8 | both sensor C8 and C8A could be cleaved by caspase-8 to release a CFP and a YFP molecule | only 58% of the sensor C8 protein was cleaved under the same condition | about 0.71 nM of caspase-8 was needed to reduce 50% of the FRET effect for sensor C8A | both sensor C8 and C8A could be cleaved by caspase-8 to release a CFP and a YFP molecule | 95% of the sensor C8A protein was cleaved after incubation with caspase-8 (216 nM) for one hour | – | – | – | – | – | – | – | – | – | – | –
2 | caspase-3 (protein) SGISLDNSYKMDYPEMGLCIIINNKNFHKSTGMTSRSGTDVDAANLRETFRNLKYEVRNKNDLTREEIVELMRDVSKEDHSKRSSFVCVLLSHGEEGIIFGTNGPVDLKKITNFFRGDRCRSLTGKPKLFIIQACRGTELDCGIETDSGVDDDMACHKIPVEADFLYAYSTAPGYYSWRNSKDGSWFIQSLCAMLKQYADKLEFMHILTRVNRKVATEFESFSFDATFHAKKQIPCIVSMLTKELYFYH | – | – | – | – | – | – | – | caspase-3 can cleave almost all the sensor A and sensor B protein | decreased by 4-5 fold | both FRET probes were highly sensitive to caspase-3, although sensor A appeared to be slightly more sensitive than sensor B | from 3.02 to 0.59 for sensor A | no cleavage was seen for CFP-YFP fusion protein under the same condition | no change for the emission spectrum was observed from the CFP-YFP fusion protein which lacks the substrate sequence | In the presence of caspase-3 inhibitor (AC-DEVD-CHO), no FRET probe (sensor A) was cleaved | caspase-3 can cleave almost all the sensor A and sensor B protein | decreased by 4-5 fold | both FRET probes were highly sensitive to caspase-3, although sensor A appeared to be slightly more sensitive than sensor B | from 2.76 to 0.59 for sensor B
